Assay results as given in patent publication US20240294593A1 (Genentech, published 2024).

T1: cynomolgus PD-1-His (cynomolgus monkey)
T1 chain: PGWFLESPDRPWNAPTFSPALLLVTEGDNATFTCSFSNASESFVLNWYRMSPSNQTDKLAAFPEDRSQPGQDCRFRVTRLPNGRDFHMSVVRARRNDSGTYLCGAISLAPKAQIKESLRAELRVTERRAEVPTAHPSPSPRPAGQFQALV

B1: XENP28519 (humanized mAb A, bivalent mAb) (antibody, human IgG1, kappa, V domains shown)
VH: QVQLQESGPGLVKPSQTLSLTCTVSGHSITSDYAWNWIRQPPGKKLEWIGYISYSGYTTYNPSLKSRVTISRDTSKNQFSLKLSSVTAADTAVYFCARDLDYGPWFAYWGQGTLVTVSS
VL: DIQMTQSPSSLSASVGDRVTITCRASENIHNYLAWYQQKPGKSPKLLVYNVKTLADGVPSRFSGSGSGTDYTLTISSLQPEDFATYYCQHFWSSPWTFGGGTKVEIKR
B2: H1.213_L1.1 (XENP32829) (antibody, human IgG1, kappa, V domains shown)
VH: EVQLVESGGGLVQPGGSLRLSCAASGFTFSSFGMHWVRQAPGKGLEWVSYISSGSSIIYYADSVKGRFTISRDNAKNSLYLQMNSLRAEDTAVYYCARGGRSIFSPDYWGQGTLVTVSS
VL: DIVMTQSPDSLAVSLGERATINCKSSQSLLHSGNQKNYLTWYQQKPGQPPKLLIYWASTRESGVPDRFTGSGSGTDFTLTISSLQAEDVAVYYCQNDYSYPFTFGSGTKLEIKR
notes: VH substitution L110S/V111I/W112F (Xencor #); L98S/V99I/W100F (Kabat); also called mAb C[PD1]_H1.213_L1.1_IgG1_PVA_/S267K
B3: XENP28537 (humanized variant of mAb C, bivalent human IgG1) (antibody, V domains shown)
VH: EVQLVESGGGLVQPGGSLRLSCAASGFTFSSFGMHWVRQAPGKGLEWVSYISSGSSIIYYADSVKGRFTISRDNAKNSLYLQMNSLRAEDTAVYYCARGGRLVWSPDYWGQGTLVTVSS
VL: DIVMTQSPLSLPVTPGEPASISCRSSQSLLNSGNQKNYLTWYLQKPGQPPQLLIYWASTRESGVPDRFTGSGSGTDFTLKISRVEAEDVGVYYCQNDYSYPFTFGSGTKLEIKR
notes: Human IgG1 with E233P/L234V/L235A/G236del/S267K
B4: H1.218_L1.1 (XENP32834) (antibody, human IgG1, kappa, V domains shown)
VH: EVQLVESGGGLVQPGGSLRLSCAASGFTFSSFGMHWVRQAPGKGLEWVSYISSGSSIIYYADSVKGRFTISRDNAKNSLYLQMNSLRAEDTAVYYCARGGRQVFTPDYWGQGTLVTVSS
VL: DIVMTQSPDSLAVSLGERATINCKSSQSLLHSGNQKNYLTWYQQKPGQPPKLLIYWASTRESGVPDRFTGSGSGTDFTLTISSLQAEDVAVYYCQNDYSYPFTFGSGTKLEIKR
notes: VH substitution L110Q/W112F/S113T (Xencor #); L98Q/W100F/S100aT (Kabat); also called mAb C[PD1]_H1.218_L1.1_IgG1_PVA_/S267K
B5: H1.222_L1.1 (XENP32838) (antibody, human IgG1, kappa, V domains shown)
VH: EVQLVESGGGLVQPGGSLRLSCAASGFTFSSFGMHWVRQAPGKGLEWVSYISSGSSIIYYADSVKGRFTISRDNAKNSLYLQMNSLRAEDTAVYYCARGGRLVLSSDYWGQGTLVTVSS
VL: DIVMTQSPDSLAVSLGERATINCKSSQSLLHSGNQKNYLTWYQQKPGQPPKLLIYWASTRESGVPDRFTGSGSGTDFTLTISSLQAEDVAVYYCQNDYSYPFTFGSGTKLEIKR
notes: VH substitution W112L/P114S (Xencor #) but W100F/P100bS in Kabat; also called mAb C[PD1]_H1.222_L1.1_IgG1_PVA_/S267K
B6: XENP28539 (humanized variant of mAb C, bivalent human IgG1) (antibody, V domains shown)
VH: EVQLVESGGGLVKPGGSLRLSCAASGFTFSSFGMHWVRQAPGKGLEWVGYISSGSSIIYYADPVKGRFTISRDNSKNTLYLQMNSLKTEDTAVYYCARGGRLVWSPDYWGQGTLVTVSS
VL: DIVMTQSPLSLPVTPGEPASISCRSSQSLLNSGNQKNYLTWYLQKPGQPPQLLIYWASTRESGVPDRFTGSGSGTDFTLKISRVEAEDVGVYYCQNDYSYPFTFGSGTKLEIKR
notes: as for B3
B7: XENP28538 (humanized variant of mAb C, bivalent human IgG1) (antibody, V domains shown)
VH: EVQLVESGGGLVKPGGSLRLSCAASGFTFSSFGMHWVRQAPGKGLEWVGYISSGSSIIYYADPVKGRFTISRDNSKNTLYLQMNSLKTEDTAVYYCARGGRLVWSPDYWGQGTLVTVSS
VL: DIVMTQSPDSLAVSLGERATINCKSSQSLLNSGNQKNYLTWYQQKPGQPPKLLIYWASTRESGVPDRFTGSGSGTDFTLTISSLQAEDVAVYYCQNDYSYPFTFGSGTKLEIKR
notes: as for B3
B8: H1.214_L1.1 (XENP32830) (antibody, human IgG1, kappa, V domains shown)
VH: EVQLVESGGGLVQPGGSLRLSCAASGFTFSSFGMHWVRQAPGKGLEWVSYISSGSSIIYYADSVKGRFTISRDNAKNSLYLQMNSLRAEDTAVYYCARGGLLILSPDYWGQGTLVTVSS
VL: DIVMTQSPDSLAVSLGERATINCKSSQSLLHSGNQKNYLTWYQQKPGQPPKLLIYWASTRESGVPDRFTGSGSGTDFTLTISSLQAEDVAVYYCQNDYSYPFTFGSGTKLEIKR
notes: VH substitution R109L/V111I/W112L (Xencor #) but R97L/V99I/W100F in the Kabat column: the two columns disagree; also called mAb C[PD1]_H1.214_L1.1_IgG1_PVA_/S267K
B9: mAb C[PD1]_H1.176_L1.140 (bivalent IgG1) (antibody, V domains shown)
VH: EVQLVESGGGLVQPGGSLRLSCAASGFTFSSLGMHWVRQAPGKGLEWVSYISSGSSIIYYADSVKGRFTISRDNAKNSLYLQMNSLRAEDTAVYYCARGGRLVFSPDYWGQGTLVTVSS
VL: DIVMTQSPDSLAVSLGERATINCKSSQSLLHSGNQYNYLTWYQQKPGQPPKLLIYWASTRESGVPDRFTGSGSGTDFTLTISSLQAEDVAVYYCQNDYTYPFTFGSGTKLEIK
notes: Bivalent IgG1 format with E233P/L234V/L235A/G236_/S267K

Columns and labels:
[1] = biological target: T2, human PD-1-His (human, UniProt Q15116 25-167, limits assumed); test: Octet (BLI); antibody captured on anti-human Fc (AHC) biosensors and dipped into multiple concentrations of human PD-1-His
T2 construct: Antigen of the Octet assays; not shown: His tag
T2 sequence (Q15116 25-167 limits assumed): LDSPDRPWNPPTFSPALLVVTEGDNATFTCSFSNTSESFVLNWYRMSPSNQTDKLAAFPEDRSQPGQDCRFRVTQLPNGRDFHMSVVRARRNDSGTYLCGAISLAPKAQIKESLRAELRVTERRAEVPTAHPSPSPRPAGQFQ

[2] = biological target: T2, human PD-1-His; test: Octet (BLI), AHC capture of the bivalent mAb, PD-1 in solution
Text: (§1) In particular, anti-human IgG-Fc (AHC) biosensors were used to capture the test articles and dipped into multiple concentrations of PD-1.

[3] = biological target: T2, human PD-1-His; test: Octet (BLI), AHC biosensors capture the bivalent mAb, dipped into multiple concentrations of PD-1; KDapp per legend
Text: as §1

[4] = biological target: T1, cynomolgus PD-1-His; test: Octet (BLI); antibody captured on anti-human Fc (AHC) biosensors and dipped into multiple concentrations of cynomolgus PD-1-His
[5] = biological target: T2, human PD-1-His; test: Octet (BLI), bivalent IgG1 mAb
[6] = biological target: T2, human PD-1-His; test: Octet (BLI), bivalent IgG1 mAb; legend calls the constant apparent (KDapp)

| Binder | koff [2] [s⁻¹] | kon [2] [M⁻¹ s⁻¹] | Kd [3] [nM] | other results |
| --- | --- | --- | --- | --- |
| B1 | – | – | – | Kd [1]: 11.9 nM |
| B2 | 0.0029 | 105000 | 27.6 | – |
| B3 | – | – | – | Kd [4]: 42 nM |
| B4 | 0.0013 | 66500 | 19.6 | – |
| B5 | 0.00565 | 114000 | 49.4 | – |
| B6 | – | – | – | binding result [1]: no binding |
| B7 | – | – | – | binding result [1]: no binding |
| B8 | 0.0061 | 166000 | 36.7 | – |
| B9 | – | – | – | koff [5]: 0.000278 s⁻¹; kon [5]: 131000 M⁻¹ s⁻¹; Kd [6]: 2.13 nM |
